Results taken from patent US5807729A, “Metalloprotease having increased activity” (Novo Nordisk A/S, priority 1995, dated 1998).

Assays:
[1] = test system: pro-trypsin-like F. oxysporum protease; assay: p45 metalloprotease pH stability; type: biochemical, Fusarium oxysporum; settings: 20 minutes pre-incubation at room temperature
Description: To determine the pH stability of the recombinant p45 metalloprotease, the partially-purified p45 metalloprotease is diluted 10-fold into universal buffers at pH's of 3.5,4,4.5, 5.2, 5.64, 6, 7, 8, 9, and 10 and pre-incubated at room temperature for 20 minutes. The pre-incubated samples (10 microliters) are added to 40 microliters of buffer containing 0.1M borate, 2 mM CaCl2, and 10 mM dimethylglutarate, pH 6.5 and 50 microliters of crude A. oryzae broth containing pro-trypsin-like F. oxysporum protease and subsequently incubated another 30 minutes.

succinylated casein = assay: Casein hydrolysis, succinylated casein assay (QuantiCleave, BCA, 600 nm); type: biochemical
Description: 400 ul of casein solution (Pierce) is added to small test tubes along with 100 ul of protease. The tubes are vortexed and incubated at room temperature for 40 minutes. The incubation (and assay) buffer is 0.1 M borate, 2 mM CaCl2, and 10 mM dimethylglutarate, pH 6.5. At the end of the incubation, 60 microliters of trichloroacetic acid (100% w/v) is added, and the tubes are vortexed and centrifuged for 1 minute at 5000×g. 20 microliters of the resulting supernatant is placed into a microtiter plate well with 200 microliters of the BCA working reagent (Pierce). The plates are then vortexed and incubated another 30 minutes, then read at 600 nm using a Biomek 1000 microtiter plate reader.
400 microliters of casein solution (Pierce) are added to small test tubes along with 100 microliters of protease in buffer "A" (0.1M borate, 2 mM CaCl2 and 10 mM dimethylglutaric acid). At the end of the incubation, 60 microliters of trichloroacetic acid (100% w/v) is added, and the tubes are vortexed and centrifuged for 1 minute at 5000×g. 20 microliters of the resulting supernatant is placed into a microtiter plate well with 200 microliters of the BCA working reagent (Pierce). The plates are then vortexed and incubated another 30 minutes, then read at 600 nm using a Biomek 1000 microtiter plate reader.

B1: p45 Metalloprotease: metalloprotease purified from Fusarium oxysporum DSM 2672 broth, 45 kDa band; also produced recombinantly in A. oryzae (protein)
chain: MRFSDSLLLIGLSSLAGAHPSRRAPNPSPLSKRGLDLEAFKLPPMAEYVPQDEVPDDVSAKVVTKRADYTETAKDLVKSTFPKATFRMVTDHYVGSNGIAHVNFKQTVNGIDIDNADFNVNIGADGEVFSYGNSFYEGKIPGPLTKRDEKDPVDALKDTVDVLSLPVEADKAKAEKKSKNHYTFTGTKGTVSKPEAKLTYLVDENKELKLTWRVETDIVDNWLLTYVNAAKTDEVVGVVDYVNEATYKVYPWGVNDPSKGSRSTVENPWNLAASEFTWLSDGSNNYTTTRGNNGIAQVNPSGGSTYLNNYRPDSPSLKFEYDYSTSTTTPTTYRDASIAQLFYTANKYHDLLYLLGFTEQAGNFQTNNNGQGGVGNDMVILNAQDGSGTNNANFATPADGQPGRMRMYLWTYSTPQRDCSFDAGVVIHEYTHGLSNRLTGGPANSGCLPGGESGGMGEGWGDFMATAIHIQSKDTRASNKVMGDWVYNNAAGIRAYPYSTSLTTNPYTYKSVNSLSGVHAIGTYWATVLYEVMWNLIDKHGKNDADEPKFNNGVPTDGKYLAMKLVVDGMSLQPCNPNMVQARDAIIDADTALTKGANKCEIWKGFAKRGLGTGAKYSASSRTESFALPSGC
- acceptable pH range (stability) [1]: 6.5-9
- pH at which most stable ([1]; pH 3.5-10): 8
- Specific Activity, substrate Succinylated Casein (maximal level) (succinylated casein): 0.30 O.D.
- maximum absorbance, casein hydrolysis (succinylated casein; pH 6.5, room temperature, 40 minutes, FIG. 8): around 0.3 O.D. units
- maximum absorbance / maximal hydrolyzed casein relative to the other proteases (succinylated casein; relative to thermolysin, dispase, B.s. neutral metalloprotease, listed as p45): about 60%
